One test concerns HIV-1 X4 B-HXB2. In words: hBD-virion interaction: virions incubated with hBD, pelleted, washed, used to infect GHOST X4/R5 cells. It is filed as cell-based. How it is done: (§1) (a) CXCR4 tropic HXB2 and CCR5 tropic 97ZA003 HIV-1 strains were incubated with 20 μg/ml hBD-1, -2, or -3 in 10 mM PB for 1 h. Virions were pelleted, washed extensively with PBS and used to infect GHOST X4/R5 cells. RT activity was measured 48 h post-infection. The final two columns represent an additional 20 μg/ml of hBD-2 or -3 during infection. (b) Immunoelectron microscopy analysis showing the interaction of hBD-2 and -3 with HIV-1 and with MT4 cell membrane. X4 HIV-1 HXB2 strain and MT4 cells were incubated with hBD-2 or -3 (20 μg/ml), 37° C., 1 h. Polyclonal anti-hBD-2 or -3 antibodies were added, followed by addition of secondary IgG conjugated with 10-nm gold particles. Arrows indicate hBD-2 and -3 localization to virions and cell membrane.
(§2) In order to verify a direct hBD-virion interaction, the X4 B-HXB2 and R5-C-97ZA003 HIV-1 strains was incubated with 20 μg/ml of each hBD in 10 mM PB for 1 h, followed by pelleting and extensive washing. Virions were then used to infect GHOST X4/R5 cells. […] To further define these interactions, MT4 cells, infected with the CXCR4 tropic B-HXB2, were incubated with hBD-2 or -3 in RPMI, followed by the addition of anti-hBD-2 or -3 antibodies and goat anti-rabbit IgG conjugated with 10-nm gold particles.

The next test concerns HIV-1 R5-C-97ZA003. The test is described as above. In kind it is cell-based. As to conditions: 20 μg/ml in 10 mM PB 1 h; RT activity 48 h post-infection. How it is done: as §1, §2
Another test concerns CEM X4/R5 cells. Nature of the test: Confocal microscopy, localisation of hBD on CEM X4/R5 cells. It is filed as cell-based, human. As to conditions: live cells incubated with hBD, then anti-hBD antibodies. The method, then: CEM X4/R5 cells were grown in RPMI-1640 medium containing 5% FBS and 400 μg/ml G418. Cells were collected, washed twice with PBS, resuspended in RPMI with 0.5% FBS or supplemented with 20 μg/ml recombinant hBD-2 or -3, and incubated at 37° C., 5% CO2 for 3 h. A second aliquot of cells, after incubation with hBD, was treated with FACS/Perm (PharMingen) at room temperature for 10 min and then washed three times with PBS. A third aliquot of cells was fixed in 1% paraformaldehyde on ice for 30 min, washed three times with PBS, and then incubated with 20 μg/ml hBD-2 or -3. Cells were stained with PE-labeled CXCR4 or CCR5 (PharMingen), or with primary goat anti-hBD-2 antibodies (Cell Sciences, Norwood, Mass., USA), or with rabbit anti-hBD-3 antibodies (Orbingen, San Diego, Calif., USA) at room temperature for 90 min, followed by washing three times with PBS. Fluorescein isothiocyanate-labeled rabbit anti-goat IgG (Jackson ImmunoResearch, West Grove, Pa., USA) for detection of hBD-2, or goat anti-rabbit IgG (Sigma) for detection of hBD-3, were added, respectively, at room temperature and incubated for 90 min. […] All samples were observed using a dual scanning confocal microscope system (Zeiss LSM 510, Oberkochem, Germany) and analyzed with the Zeiss LSM 5 Image Browser. […]

For another test, the system named is MT4 cellular membrane. Nature of the test: Immunogold transmission electron microscopy. Particulars: 20 μg/ml, 37° C., 1 h; anti-hBD antibody and 10-nm gold IgG. In kind it is binding, human. The method, then:
as §1
MT4 cells in RPMI, or X4 strain B-HXB2 viral particles in 10 mM phosphate buffer (PB), were incubated with 20 μg/ml hBD-2 and -3 at 37° C. for 1 h. Cells and virions were centrifuged (15 min, 1200 rpm for cells; 30 min, 35 000 3 g for virus) and washed twice with PBS to remove unbound hBD. Cells and virions were mixed and fixed with 4% paraformaldehyde/0.5% glutaraldehyde, dehydrated, embedded in LR WHITE resin (London Resin Company Ltd, Berkshire, UK), and labeled after embedding as described [Briquet et al.]. […]

The record followed here is US7442375B2, “Compositions of beta-defensin inducing agents” (Case Western Reserve University, priority 2002, dated 2008).

B1: hBD-3: Recombinant human β-defensin 3 produced using an hBD-3-His tag fusion construct cloned into pET-30c; exemplary sequence SEQ ID NO:15 (protein, listed as Homo sapiens)
chain: MRIHYLLFALLFLFLVPVPGHGGIINTLQKYYCRVRGGRCAVLSCLPKEEQIGKCSTRGRKCCRRKK
modifications: not fully specified (C-terminus); ends and bridges not checked
In the case of B1, the “anti-HIV-1 effect after pelleting and extensive washing of virions” value with HIV-1 X4 B-HXB2 (20 μg/ml in 10 mM PB 1 h, RT activity 48 h post-infection) is listed as “maintained after washing”; in the test with HIV-1 R5-C-97ZA003, “maintained after washing”. Besides, in the test with HIV-1 X4 B-HXB2 (additional 20 μg/ml during infection, enhancement only against the CXCR4-tropic strain), the “effect of subsequent addition of hBD to the cell-virus mixture” value is given as “enhanced anti-HIV-1 activity”. Further, in the test on CEM X4/R5 cells, the “detection of peptide on the cell surface” value is reported as “failed to detect”. In addition, the “gold particles bound to MT4 cellular membrane” value in the test with MT4 cellular membrane is “bound both to virions and to the MT4 cellular membrane”.
